Experimental data taken from the DeepSol protein solubility set.

test: soluble on expression in E. coli; label from the status in PepcDB or PDB records

Sequence	soluble on expression in E. coli
MGSDKIHHHHHHMKDDVSAPSRYRPSIFAVPFQRHGDGTAVELLSPSEQDALIAISRLVTVRRHTVLYPEGGDARFAYNIVSGVAETYQLLPNGDKRITAFLFPRDLMGLSENGAYVATAQSLTPLVAYRIPVEALAEILERDPRLDIGLLCKLCHELRRSQHHTITVSKNEAPARLASFLVWIQHAYPEEGRAEGEVMLPMSRHDIADYLGLSVESVSRGLHVLEAQDAVRRKGPRLVTVLDPAKLRRLAGQD	not soluble
MSLSKLDIPLSIMQKSVVIRPGGRQEMDEHVAIETPYAIALNDRVIGSSMVLPVDLEEFGAGFLFGQGYIKKAEEIREILVCPQGRISVYADVENEEPREVIITSGCGGTGKIPKEMLEGEFAPLADYCLPFAEIKSFIREALHSSPLGPQTHCVHGCGLWNNGRLQVYHEDVGRHNAVDKVLGSILLGRASNNSAVYTTGRLTSDMVLKCARIGIPIIMSRTSPSSLGLALAKRSGATLVAYSRPERINVFNAPERILTEGHHHHHH	soluble
MEKLINRVGPNGESRAQAVTSDQEKRLLHQLREITRVMKEGKFIDTSPEKEAEEAPYMEDWEGYPEETYPIYDLSDGIKRRQETILVDYPDLKEPSAEEIAEQMGEIEEEGSERLSWDHLPTDPGAQKDNSVAPCDPKPESCSCCVHEEEDPAVLAENAGFSADGYSEQEEATKENLPQDFTNEGLGVSTDNAHVGGMLRKRNPQGFE	not soluble
MRWTKEELDRYHRQMILPQVGPEGQERLKRASVVVVGAGGLGVPVLQYLVAARVGRVGVVEMDRVEVSDLHRQVLYTTEDVGEPKALVAQKRLQALNPLVRVEAYPVRLTSENALEILRPYDLVVDASDNFPTRYLVNDAAVLLGKPLVFGAIYQFDGQGTVFHHPTLHGEMGPCYRCLFPKPPPPGAVPSCAEAGVFGVLPAVVGSLMAAEALKVLLGIGKPLAGHLLLYDALEAGFRKLTVRRNPRCPVCGDEPTQRELVDYEAFCGLG	soluble
MAERGFREGTLEEASKILGVDKSSLASLSNLLAEKGVVEVEERVEEHYVLTERGRDALERGLPEEKLVLFLAGRGGEASVEEVRRALGEEAGIALGQAARKGLVVIAGGVVRLAVDQAEALKTITPLKKLLENVASGSKPTVGDELLREALSRGLIRREARRSIVLRLKVNPAEALARARVEAAVLTRDMLKSGEWRRLRFKPYNVKAEPPRVLPARRHFLAEFIERLRDILRELGFREVRGPLVELELFNFDVLFQAQDHPAREIHDSLWIKSPRRGDLSGYSDLVERVASVHERGWKYRWSPEVASRYILRSQTTAVSARILATRPNPPARFFTVGKVFRSDAVGPTRLPEFHQLDGIEGDEGYTFRDLLGRLDEIASMLGLKLKFKPAYFPFTEPSVEGYVKLPNGRWLELFGAGMFRPEVLEAVGVDYPVGAWGFGIERLAMAFYGVSDIRKLYTRNVDEVREMRVRWL	soluble
MTAVRDPFFPADQSIRASHNPIEVRELGMMDYQRAWDLQAELNKQRQHDEINDVILVLEHPSIYTAGKRTQPSDRPQNGLPVIDVDRGGRITWHGPGQLVMYPIIKLAEPIDVVDYVRRVEEALIHVIRTHGIPNAGRIDGRSGVWVPGKTPEEHRKVAALGIRIAGGVTMHGLALNCDNTVEFYDYIVPCGISDAGVTTMSQEVGNDVTTQSMTAPLLAALDDAFAGRLVVADHSFASAPDPTKIPRRP	not soluble
MLRPVETPTREIKKLDGLWAFSLDRENCGIDQRWWESALQESRAIAVPGSFNDQFADADIRNYAGNVWYQREVFIPKGWAGQRIVLRFDAVTHYGKVWVNNQEVMEHQGGYTPFEADVTPYVIAGKSVRITVCVNNELNWQTIPPGMVITDENGKKKQSYFHDFFNYAGIHRSVMLYTTPNTWVDDITVVTHVAQDCNHASVDWQVVANGDVSVELRDADQQVVATGQGTSGTLQVVNPHLWQPGEGYLYELCVTAKSQTECDIYPLRVGIRSVAVKGEQFLINHKPFYFTGFGRHEDADLRGKGFDNVLMVHDHALMDWIGANSYRTSHYPYAEEMLDWADEHGIVVIDETAAVGFNLSLGIGFEAGNKPKELYSEEAVNGETQQAHLQAIKELIARDKNHPSVVMWSIANEPDTRPQGAREYFAPLAEATRKLDPTRPITCVNVMFCDAHTDTISDLFDVLCLNRYYGWYVQSGDLETAEKVLEKELLAWQEKLHQPIIITEYGVDTLAGLHSMYTDMWSEEYQCAWLDMYHRVFDRVSAVVGEQVWNFADFATSQGILRVGGNKKGIFTRDRKPKSAAFLLQKRWTGMNFGEKPQQGGKQ	soluble
